# Earlier results in patent publication US20200069786A1, “COMPOSITION AND PROCESS FOR PREPARING VACCINE” (TREOS BIO ZRT., priority 2018, published 2020).
# Where two headings read alike, the source gives them in different places.
# System: TSA
# [1] = TSA expression rate in Cervical cancer
# [2] = TSA expression rate in GASTRIC cancer
# [3] = TSA expression rate in MELANOMA
# [4] = TSA expression rate in PROSTATE cancer
# [5] = TSA expression rate in HEAD and NECK
# [6] = TSA expression rate in Esophageal
# [7] = TSA expression rate in LUNG cancer
# [8] = TSA expression rate in BLADDER cancer
molecule,measurement,setting,value
"PASD1 (protein, UniProt Q8IV76 1-773, looked up) Circadian clock protein PASD1: MKMRGEKRRDKVNPKSSQRKLNWIPSFPTYDYFNQVTLQLLDGFMITLSTDGVIICVAENISSLLGHLPAEIVGKKLLSLLPDEEKDEVYQKIILKFPLLNSETHIEFCCHLKRGNVEHGDSSAYENVKFIVNVRDICNEFPVVFSGLFSSHLCADFAACVPQEDRLYLVGNVCILRTQLLQQLYTSKAVSDEAVLTQDSDEEPFVGELSSSQGQRGHTSMKAVYVEPAAAAAAAAISDDQIDIAEVEQYGPQENVHMFVDSDSTYCSSTVFLDTMPESPALSLQDFRGEPEVNPLYRADPVDLEFSVDQVDSVDQEGPMDQQDPENPVAPLDQAGLMDPVDPEDSVDLGAAGASAQPLQPSSPVAYDIISQELELMKKLKEQLEERTWLLHDAIQNQQNALELMMDHLQKQPNTLRHVVIPDLQSSEAVPKKQQKQHAGQVKRPLPHPKDVKCFCGLSLSNSLKNTGELQEPCVAFNQQQLVQQEQHLKEQQRQLREQLQQLREQRKVQKQKKMQEKKKLQEQKMQEKKKLQEQRRQKKKKLQERKKWQGQMLQKEPEEEQQKQQLQEQPLKHNVIVGNERVQICLQNPRDVSVPLCNHPVRFLQAQPIVPVQRAAEQQPSGFYQDENCGQQEDESQSFYPEAYQGPPVNQLPLIDTSNSEAISSSSIPQFPITSDSTISTLETPQDYIRLWQELSDSLGPVVQVNTWSCDEQGTLHGQPTYHQVQVSEVGVEGPPDPQAFQGPAAYQPDQMRSAEQTRLMPAEQRDSNKPC",TSA Expression Rate (ER),BRAIN,31%
same,TSA Expression Rate (ER),LUNG,29%
same,TSA Expression Rate (ER),THYROID,25%
same,Expression Rate (ER) %,TSA expression rate in CRC,44%
same,Expression Rate (ER) %,[1],58%
same,Expression Rate (ER) %,[2],44%
same,Expression Rate (ER) %,[3],44%
same,Expression Rate (ER) %,[4],29%
"GAGE-1 (protein, UniProt P0DTW1 1-117, looked up) G antigen 1: MSWRGRSTYYWPRPRRYVQPPEMIGPMRPEQFSDEVEPATPEEGEPATQRQDPAAAQEGEDEGASAGQGPKPEADSQEQGHPQTGCECEDGPDGQEMDPPNPEEVKTPEEGEGQSQC",TSA Expression Rate (ER),BRAIN,42%
same,Expression Rate (ER) %,[5],39%
"ACTL8 (protein, UniProt Q9H568 1-366, looked up) Actin-like protein 8: MAARTVIIDHGSGFLKAGTAGWNEPQMVFPNIVNYLPCKENPGPSYARRRVSLGIDICHPDTFSYPIERGRILNWEGVQYLWSFVLENHRREQEVPPVIITETPLREPADRKKMLEILFELLHVPSVLLADQLQMSLYASGLLTGVVVDSGYGLTRVQPFHQGRPLPASGKTLEFAGQDLSAYLLKSLFKEDCDRRCLFQLETVAVTQMNKCYVPQNLGEALDFRERQQSALDESNTYQLPDGSRVELTPMQRVAPEMFFSPQVFEQPGPSIPRAIVESVESCEISLRPLLVSHVMACGGNTLYPGFTKRLFRELMGDHVSSTKATVWEGSNRNFSVWLGASVVAHLSTYQSEWMSREEYGEHMRM",TSA Expression Rate (ER),BRAIN,54%
"FAM46D (protein, UniProt Q8NEK8 1-389, looked up) Terminal …: MSEIRFTNLTWDQVITLDQVLDEVIPIHGKGNFPTMEVKPKDIIHVVKDQLIGQGIIVKDARLNGSVASYILASHNGISYKDLDVIFGVELPGNEEFQVVKDAVLDCLLDFLPKDVKKEKLSPDIMKDAYVQKLVKVCNGHDCWSLISLSNNTGKNLELKFVSSLRRQFEFSVDSFQIVLDPMLDFYSDKNAKLTKESYPVVVAESMYGDFQEAMTHLQHKLICTRKPEEIRGGGLLKYCSLLVHGFKPACMSEIKNLERYMCSRFFIDFPHIEEQQKKIESYLHNHFIGEGMTKYDYLMTLHGVVNESTVCLMSYERRQILHLITMMALKVLGELNILPNTQKVTCFYQPAPYFAAEARYPIYVIPEPPPVSFQPYHPLHFRGSNGMS",TSA Expression Rate (ER),BRAIN,8%
same,TSA Expression Rate (ER),LUNG,50%
same,TSA Expression Rate (ER),THYROID,8%
same,Expression Rate (ER) %,TSA expression rate in CRC,22%
same,Expression Rate (ER) %,[1],37%
same,Expression Rate (ER) %,[2],11%
same,Expression Rate (ER) %,[3],28%
same,Expression Rate (ER) %,[4],33%
"SP17 (protein, UniProt Q15506 1-151, looked up) Sperm surface protein Sp17: MSIPFSNTHYRIPQGFGNLLEGLTREILREQPDNIPAFAAAYFESLLEKREKTNFDPAEWGSKVEDRFYNNHAFEEQEPPEKSDPKQEESQISGKEEETSVTILDSSEEDKEKEEVAAVKIQAAFRGHIAREEAKKMKTNSLQNEEKEENK",TSA Expression Rate (ER),BRAIN,13%
same,TSA Expression Rate (ER),BREAST,47%
same,TSA Expression Rate (ER),HCC,87%
same,TSA Expression Rate (ER),OVARIAN,62%
same,TSA Expression Rate (ER),THYROID,10%
same,Expression Rate (ER) %,[1],61%
same,Expression Rate (ER) %,[6],81%
same,Expression Rate (ER) %,[7],12%
same,Expression Rate (ER) %,[4],10%
"MAGE-B6 (protein, UniProt Q8N7X4 1-407, looked up) Melanoma-associated antigen B6: MPRGHKSKLRTCEKRQETNGQPQGLTGPQATAEKQEESHSSSSSSRACLGDCRRSSDASIPQESQGVSPTGSPDAVVSYSKSDVAANGQDEKSPSTSRDASVPQESQGASPTGSPDAGVSGSKYDVAANGQDEKSPSTSHDVSVPQESQGASPTGSPDAGVSGSKYDVAAEGEDEESVSASQKAIIFKRLSKDAVKKKACTLAQFLQKKFEKKESILKADMLKCVRREYKPYFPQILNRTSQHLVVAFGVELKEMDSSGESYTLVSKLGLPSEGILSGDNALPKSGLLMSLLVVIFMNGNCATEEEVWEFLGLLGIYDGILHSIYGDARKIITEDLVQDKYVVYRQVCNSDPPCYEFLWGPRAYAETTKMRVLRVLADSSNTSPGLYPHLYEDALIDEVERALRLRA",TSA Expression Rate (ER),BRAIN,6%
"MAGE-A11 (protein, UniProt P43364 1-429, looked up) Melanoma-associated antigen 11: METQFRRGGLGCSPASIKRKKKREDSGDFGLQVSTMFSEDDFQSTERAPYGPQLQWSQDLPRVQVFREQANLEDRSPRRTQRITGGEQVLWGPITQIFPTVRPADLTRVIMPLEQRSQHCKPEEGLQAQEEDLGLVGAQALQAEEQEAAFFSSTLNVGTLEELPAAESPSPPQSPQEESFSPTAMDAIFGSLSDEGSGSQEKEGPSTSPDLIDPESFSQDILHDKIIDLVHLLLRKYRVKGLITKAEMLGSVIKNYEDYFPEIFREASVCMQLLFGIDVKEVDPTSHSYVLVTSLNLSYDGIQCNEQSMPKSGLLIIVLGVIFMEGNCIPEEVMWEVLSIMGVYAGREHFLFGEPKRLLTQNWVQEKYLVYRQVPGTDPACYEFLWGPRAHAETSKMKVLEYIANANGRDPTSYPSLYEDALREEGEGV",TSA Expression Rate (ER),BREAST,59%
same,TSA Expression Rate (ER),HCC,36%
same,Expression Rate (ER) %,[5],37%
same,Expression Rate (ER) %,[3],54%
"NXF2 (protein, UniProt Q9GZY0 1-626, looked up) Nuclear RNA export factor 2: MCSTLKKCGTYRTEVAECHDHGSTFQGRKKGGSSFRDNFDKRSCHYEHGGYERPPSHCQENDGSVEMRDVHKDQQLRHTPYSIRCERRMKWHSEDEIRITTWRNRKPPERKMSQNTQDGYTRNWFKVTIPYGIKYDKAWLMNSIQSHCSDRFTPVDFHYVRNRACFFVQDASAASALKDVSYKIYDDENQKICIFVNHSTAPYSVKNKLKPGQMEMLKLTMNKRYNVSQQALDLQNLRFDPDLMGRDIDIILNRRNCMAATLKIIERNFPELLSLNLCNNKLYQLDGLSDITEKAPKVKTLNLSKNKLESAWELGKVKGLKLEELWLEGNPLCSTFSDQSAYVSAIRDCFPKLLRLDGRELSAPVIVDIDSSETMKPCKENFTGSETLKHLVLQFLQQYYSIYDSGDRQGLLGAYHDEACFSLAIPFDPKDSAPSSLCKYFEDSRNMKTLKDPYLKGELLRRTKRDIVDSLSALPKTQHDLSSILVDVWCQTERMLCFSVNGVFKEVEGQSQGSVLAFTRTFIATPGSSSSLCIVNDELFVRDASPQETQSAFSIPVSTLSSSSEPSLSQEQQEMVQAFSAQSGMKLEWSQKCLQDNEWNYTRAGQAFTMLQTEGKIPAEAFKQIS",TSA Expression Rate (ER),BRAIN,18%
same,TSA Expression Rate (ER),BREAST,2%
same,TSA Expression Rate (ER),THYROID,20%
same,Expression Rate (ER) %,[8],19%
same,Expression Rate (ER) %,TSA expression rate in CRC,9%
same,Expression Rate (ER) %,[6],17%
same,Expression Rate (ER) %,[2],6%
same,Expression Rate (ER) %,[5],5%
same,Expression Rate (ER) %,TSA expression rate in Kidney,0%
same,Expression Rate (ER) %,[7],15%
same,Expression Rate (ER) %,[3],8%
same,Expression Rate (ER) %,[4],14%
"SLCO6A1 (protein, UniProt Q86UG4 1-719, looked up) Solute carrier organic anion …: MFVGVARHSGSQDEVSRGVEPLEAARAQPAKDRRAKGTPKSSKPGKKHRYLRLLPEALIRFGGFRKRKKAKSSVSKKPGEVDDSLEQPCGLGCLVSTCCECCNNIRCFMIFYCILLICQGVVFGLIDVSIGDFQKEYQLKTIEKLALEKSYDISSGLVAIFIAFYGDRKKVIWFVASSFLIGLGSLLCAFPSINEENKQSKVGIEDICEEIKVVSGCQSSGISFQSKYLSFFILGQTVQGIAGMPLYILGITFIDENVATHSAGIYLGIAECTSMIGYALGYVLGAPLVKVPENTTSATNTTVNNGSPEWLWTWWINFLFAAVVAWCTLIPLSCFPNNMPGSTRIKARKRKQLHFFDSRLKDLKLGTNIKDLCAALWILMKNPVLICLALSKATEYLVIIGASEFLPIYLENQFILTPTVATTLAGLVLIPGGALGQLLGGVIVSTLEMSCKALMRFIMVTSVISLILLVFIIFVRCNPVQFAGINEDYDGTGKLGNLTAPCNEKCRCSSSIYSSICGRDDIEYFSPCFAGCTYSKAQNQKKMYYNCSCIKEGLITADAEGDFIDARPGKCDAKCYKLPLFIAFIFSTLIFSGFSGVPIVLAMTRVVPDKLRSLALGVSYVILRIFGTIPGPSIFKMSGETSCILRDVNKCGHTGRCWIYNKTKMAFLLVGICFLCKLCTIIFTTIAFFIYKRRLNENTDFPDVTVKNPKVKKKEETDL",TSA Expression Rate (ER),BRAIN,19%
same,TSA Expression Rate (ER),BREAST,7%
same,Expression Rate (ER) %,[6],33%
same,Expression Rate (ER) %,[7],7%
"HAGE (protein, UniProt Q9NXZ2 1-648, looked up) Probable ATP-dependent RNA …: MSHHGGAPKASTWVVASRRSSTVSRAPERRPAEELNRTGPEGYSVGRGGRWRGTSRPPEAVAAGHEELPLCFALKSHFVGAVIGRGGSKIKNIQSTTNTTIQIIQEQPESLVKIFGSKAMQTKAKAVIDNFVKKLEENYNSECGIDTAFQPSVGKDGSTDNNVVAGDRPLIDWDQIREEGLKWQKTKWADLPPIKKNFYKESTATSAMSKVEADSWRKENFNITWDDLKDGEKRPIPNPTCTFDDAFQCYPEVMENIKKAGFQKPTPIQSQAWPIVLQGIDLIGVAQTGTGKTLCYLMPGFIHLVLQPSLKGQRNRPGMLVLTPTRELALQVEGECCKYSYKGLRSVCVYGGGNRDEQIEELKKGVDIIIATPGRLNDLQMSNFVNLKNITYLVLDEADKMLDMGFEPQIMKILLDVRPDRQTVMTSATWPHSVHRLAQSYLKEPMIVYVGTLDLVAVSSVKQNIIVTTEEEKWSHMQTFLQSMSSTDKVIVFVSRKAVADHLSSDLILGNISVESLHGDREQRDREKALENFKTGKVRILIATDLASRGLDVHDVTHVYNFDFPRNIEEYVHRIGRTGRAGRTGVSITTLTRNDWRVASELINILERANQSIPEELVSMAERFKAHQQKREMERKMERPQGRPKKFH",TSA Expression Rate (ER),BRAIN,38%
same,TSA Expression Rate (ER),BREAST,14%
same,TSA Expression Rate (ER),LUNG,32%
same,TSA Expression Rate (ER),THYROID,20%
same,Expression Rate (ER) %,[8],24%
same,Expression Rate (ER) %,TSA expression rate in CRC,15%
same,Expression Rate (ER) %,[6],27%
same,Expression Rate (ER) %,[5],20%
same,Expression Rate (ER) %,TSA expression rate in Kidney,6%
same,Expression Rate (ER) %,[3],17%
same,Expression Rate (ER) %,[4],22%
